Test results: patent US20230140293A1
Like-named read-outs stand apart in the source and are kept apart here.

Tests used:
[1] = target: CH0505TF.gly3.197 Env, Env-pseudotyped virus produced in 293T cells (HIV-1); assay: cell-based or functional assay
[2] = target: HIV-1 Env 426c.SM (N276D), Env-pseudotyped virus produced in 293T cells (HIV-1 clade C strain 426c); assay: cell-based or functional assay
[3] = target: CH0505.w4.3 Env, pseudotyped virus produced in 293S GnTI- cells (HIV-1); assay: cell-based or functional assay
[4] = target: HIV-1 Env 426c.DM (N460D.N463D), Env-pseudotyped virus produced in 293S GnTI- cells (Man5-enriched) (HIV-1 clade C strain 426c); assay: cell-based or functional assay
[5] = target: CH0505TF Env, pseudotyped virus produced in 293S GnTI- cells (HIV-1); assay: cell-based or functional assay
[6] = target: HIV-1 CH0505TF (CH505 transmitted/founder) Env on Env-pseudotyped virus produced in 293T cells (HIV-1); assay: cell-based or functional assay
[7] = target: HIV-1 CH0505TF.gly3.197 Env on Env-pseudotyped virus produced in 293S/GnTI-/- cells (Man5-enrichment) (HIV-1); assay: cell-based or functional assay
[8] = target: HIV-1 426c.DM (N460D/N463D) Env on Env-pseudotyped virus produced in 293T cells (HIV-1); assay: cell-based or functional assay
[9] = target: HIV-1 426c.TM (N276D/N460D/N463D) Env on Env-pseudotyped virus produced in 293s/GnTI-/- cells (Man5-enrichment) (HIV-1); assay: cell-based or functional assay
[10] = target: CH0505TF.gly3.276 Env, pseudotyped virus produced in 293S GnTI- cells (HIV-1); assay: cell-based or functional assay
[11] = target: HIV-1 CH0505TF.gly4 Env on Env-pseudotyped virus produced in 293T cells (HIV-1); assay: cell-based or functional assay
[12] = target: CH0505TF.G458Y Env, Env-pseudotyped virus produced in 293T cells (HIV-1); assay: cell-based or functional assay
[13] = target: HIV-1 Env 426c.TM4 (S278R.G471S.N460D.N463D), Env-pseudotyped virus produced in 293T cells (HIV-1 clade C strain 426c); assay: cell-based or functional assay
[14] = target: HIV-1 426c.SM (N276D) Env on Env-pseudotyped virus produced in 293s/GnTI-/- cells (Man5-enrichment) (HIV-1); assay: cell-based or functional assay
[15] = target: HIV-1 CH0505TF Env on Env-pseudotyped virus produced in 293S/GnTI-/- cells (Man5-enrichment) (HIV-1); assay: cell-based or functional assay
[16] = target: CH0505TF.G458Y Env, pseudotyped virus produced in 293S GnTI- cells (HIV-1); assay: cell-based or functional assay
[17] = target: HIV-1 426c.SM (N276D) Env on Env-pseudotyped virus produced in 293T cells (HIV-1); assay: cell-based or functional assay
[18] = target: HIV-1 Env 426c.TM4 (S278R.G471S.N460D.N463D), Env-pseudotyped virus produced in 293S GnTI- cells (Man5-enriched) (HIV-1 clade C strain 426c); assay: cell-based or functional assay
[19] = target: CH0505.w4.3 Env, Env-pseudotyped virus produced in 293T cells (HIV-1); assay: cell-based or functional assay
[20] = target: CH0505TF.gly3.461 Env, Env-pseudotyped virus produced in 293T cells (HIV-1); assay: cell-based or functional assay
[21] = target: HIV-1 Env 426c, Env-pseudotyped virus produced in 293S GnTI- cells (Man5-enriched) (HIV-1 clade C strain 426c); assay: cell-based or functional assay
[22] = target: CH0505TF.gly4 Env, Env-pseudotyped virus produced in 293T cells (HIV-1); assay: cell-based or functional assay
[23] = target: HIV-1 CH0505TF.gly4 Env on Env-pseudotyped virus produced in 293S/GnTI-/- cells (Man5-enrichment) (HIV-1); assay: cell-based or functional assay
[24] = target: HIV-1 clade C strain 426c Env on Env-pseudotyped virus produced in 293T cells (HIV-1); assay: cell-based or functional assay
[25] = target: CH0505TF Env, Env-pseudotyped virus produced in 293T cells (HIV-1); assay: cell-based or functional assay
[26] = target: HIV-1 CH0505TF.N280D Env on Env-pseudotyped virus produced in 293S GnTI- cells (HIV-1); assay: cell-based or functional assay
[27] = target: HIV-1 CH0505TF.N280D Env on Env-pseudotyped virus produced in 293T cells (HIV-1); assay: cell-based or functional assay
[28] = target: HIV-1 CH0505TF (CH505 transmitted/founder) Env on Env-pseudotyped virus produced in 293T cells (HIV-1); assay: cell-based or functional assay; remark: listed apart in the source
[29] = target: HIV-1 CH0505TF.S365P Env on Env-pseudotyped virus produced in 293S GnTI- cells (HIV-1); assay: cell-based or functional assay
[30] = target: HIV-1 CH0505TF.G458Y Env on Env-pseudotyped virus produced in 293T cells (HIV-1); assay: cell-based or functional assay
[31] = target: HIV-1 CH0505TF.S365P Env on Env-pseudotyped virus produced in 293T cells (HIV-1); assay: cell-based or functional assay
[32] = target: HIV-1 CH0505TF Env on Env-pseudotyped virus produced in 293S/GnTI-/- cells (Man5-enrichment) (HIV-1); assay: cell-based or functional assay; remark: listed apart in the source
[33] = target: CH505 w053.31 gp120 (HIV-1); assay: ELISA, gp120 on plate
[34] = target: CH505 w020.14 gp120 (HIV-1); assay: ELISA, gp120 on plate
CH505 M11 gp120 (HIV-1) = assay: ELISA, gp120 on plate
[35] = target: CH505 w030.28 gp120 (HIV-1); assay: ELISA, gp120 on plate
CH505 M5 gp120 (HIV-1) = assay: ELISA, gp120 on plate

Substance | IC50 (µg/ml) in TZM-bl [1] [µg/mL] | IC50 (µg/ml) in TZM-bl [2] [µg/mL] | IC50 (µg/ml) in TZM-bl [3] [µg/mL] | IC50 (µg/ml) in TZM-bl [4] [µg/mL] | IC50 (µg/ml) in TZM-bl [5] [µg/mL] | IC50 (ug/ml) in TZM-bl cells [6] [µg/mL] | IC50 (ug/ml) in TZM-bl cells [7] [µg/mL] | ID50/IC50 in TZM-bl [8] [µg/mL] | ID50/IC50 in TZM-bl [9] [µg/mL] | IC50 (µg/ml) in TZM-bl [10] [µg/mL] | IC50 (ug/ml) in TZM-bl cells [11] [µg/mL] | IC50 (µg/ml) in TZM-bl [12] [µg/mL] | IC50 (µg/ml) in TZM-bl [13] [µg/mL] | ID50/IC50 in TZM-bl [14] [µg/mL] | IC50 (ug/ml) in TZM-bl cells [15] [µg/mL] | IC50 (µg/ml) in TZM-bl [16] [µg/mL] | ID50/IC50 in TZM-bl [17] [µg/mL] | IC50 (µg/ml) in TZM-bl [18] [µg/mL] | IC50 (µg/ml) in TZM-bl [19] [µg/mL] | IC50 (µg/ml) in TZM-bl [20] [µg/mL] | other results
CH103 (antibody) | 1.6 | > 40 | 0.18 | 0.63 | 0.57 | 2.6 | 0.19 | 6.1 | 0.09 | 0.007 | 0.01 | 6.4 | 3.7 | 2.2 | 0.67 | 0.44 | > 40 | 0.48 | 0.31 | 0.014 | IC50 (µg/ml) in TZM-bl [21]: 5.3 µg/mL; IC50 (µg/ml) in TZM-bl [22]: 0.002 µg/mL; IC50 (ug/ml) in TZM-bl cells [23]: 0.005 µg/mL; ID50/IC50 in TZM-bl [24]: > 40 µg/mL; IC50 (µg/ml) in TZM-bl [25]: 1.9 µg/mL; IC50 (µg/ml) in TZM-bl [26]: 0.24 µg/mL; IC50 (µg/ml) in TZM-bl [27]: 1.2 µg/mL; IC50 (µg/ml) in TZM-bl [28]: 1.9 µg/mL; IC50 (µg/ml) in TZM-bl [29]: 1.7 µg/mL; IC50 (µg/ml) in TZM-bl [30]: 5.8 µg/mL; IC50 (µg/ml) in TZM-bl [31]: > 50 µg/mL; IC50 (µg/ml) in TZM-bl [32]: 0.57 µg/mL; log AUC [33]: 13.6 log AUC; log AUC [34]: 12.6 log AUC; log AUC (CH505 M11 gp120 (HIV-1)): 13.4 log AUC; log AUC [35]: 12.8 log AUC; log AUC (CH505 M5 gp120 (HIV-1)): 9.8 log AUC
CH235 (antibody) | 0.16 | > 50 | 0.03 | > 25 | 0.03 | 0.35 | 0.006 | > 50 | > 25 | 0.02 | 0.022 | 0.1 | > 25 | > 25 | 0.03 | < 0.02 | > 50 | > 25 | 0.4 | 0.086 | IC50 (µg/ml) in TZM-bl [6]: 0.35 µg/mL; IC50 (µg/ml) in TZM-bl [15]: < 0.02 µg/mL; IC50 (µg/ml) in TZM-bl cells [16]: < 0.005 µg/mL; IC50 (µg/ml) in TZM-bl [21]: > 25 µg/mL; IC50 (µg/ml) in TZM-bl [22]: 0.022 µg/mL; IC50 (ug/ml) in TZM-bl cells [23]: 0.004 µg/mL; ID50/IC50 in TZM-bl [24]: > 50 µg/mL; IC50 (µg/ml) in TZM-bl [25]: 0.3 µg/mL; IC50 (µg/ml) in TZM-bl [26]: 3.4 µg/mL; IC50 (µg/ml) in TZM-bl [27]: > 25 µg/mL; IC50 (µg/ml) in TZM-bl [28]: 0.3 µg/mL; IC50 (µg/ml) in TZM-bl [29]: 0.02 µg/mL; IC50 (µg/ml) in TZM-bl [30]: 0.1 µg/mL; IC50 (µg/ml) in TZM-bl [31]: 0.6 µg/mL; IC50 (µg/ml) in TZM-bl [32]: 0.03 µg/mL; log AUC [33]: 1.1 log AUC; log AUC [34]: 9.9 log AUC; log AUC (CH505 M11 gp120 (HIV-1)): 7.6 log AUC; log AUC [35]: 6.7 log AUC; log AUC (CH505 M5 gp120 (HIV-1)): 11.4 log AUC
